In the supplement of paper PMC7125110:
± gives the standard error. This sample holds only a part of the variants without activity.

B1: glmS ribozyme (parent)
chain: AUAAAAGCGCCAGAACUACAGAAAUGUAGUUGACGAGGAGGAGGUUUAUCGAAUUUUCGGCGGAUGCCUCCAAA

How the values were obtained:
Conditions in all cases: with glucosamine-6-phosphate
glucosamine-6-phosphate [1] = variants of: B1; experiment: self-cleavage kobs at 160 uM GlcN6P; higher = faster cleavage; RNA array
Summary of the method: (§1)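 Glucosamine-6-phosphate in HEPES/KCl/Mg(OAc)2 buffer, at 40 μM to 10 mM, was flowed over barcoded ribozyme variants transcribed in situ by E. coli RNA polymerase on sequenced MiSeq chips. Tracking was through a hybridised Cy3 probe at 37 °C. kobs, kcat and KM came from exponential decay fits and weighted Michaelis–Menten fits of normalised per-tile medians.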

glucosamine-6-phosphate [2] = variants of: B1; experiment: self-cleavage kobs at 640 uM GlcN6P; higher = faster cleavage; RNA array
Summary of the method: as §1

glucosamine-6-phosphate [3] = variants of: B1; experiment: self-cleavage kobs at 2500 uM GlcN6P; higher = faster cleavage; RNA array
Summary of the method: as §1

glucosamine-6-phosphate [4] = variants of: B1; experiment: self-cleavage kobs at 10000 uM GlcN6P; higher = faster cleavage; RNA array
Summary of the method: as §1

Row | Variant | self-cleavage kobs at 160 uM GlcN6P (glucosamine-6-phosphate [1]) [s⁻¹] | self-cleavage kobs at 640 uM GlcN6P (glucosamine-6-phosphate [2]) [s⁻¹] | self-cleavage kobs at 2500 uM GlcN6P (glucosamine-6-phosphate [3]) [s⁻¹] | self-cleavage kobs at 10000 uM GlcN6P (glucosamine-6-phosphate [4]) [s⁻¹]
1 | AUAAAAGCGCCCGAACUACAGAAAUGUAGUUGACGAGGAGGCGGUUUAUCGCAUUUUCGGUGGAUGCCACCAAA [A12C A42C A52C C61U U69A] | < 1e-05 | – | – | –
2 | AUAAAAGCGCCGGAACUACAGAAAUGUAGUUGACGAGGAGUAGGUUUAUCCAAUUUUCGGCGGAUGCCUCAAAA [A12G G41U G51C C71A] | < 1e-05 | < 1e-05 | < 1e-05 | –
3 | AUAAAAGCGCCCGAACUACAGAAAUGUACUUGACGAGGAGGAGGUUUAUCGCAUUUUCGGCGGCUGCCUCCAAA [A12C G29C A52C A64C] | < 1e-05 | < 1e-05 | – | –
4 | AUAAAAGCGCCGGAUCUACAGAAAUGUAGUUGACGAGGAGGAGGUUUAUCGACUUUUCGGCGGAUGACUCCAAA [A12G A15U A53C C67A] | < 1e-05 | – | – | –
5 | AUAAAAGCGCUAGAACUACAGAAAUGUAGUUGACGAGGGGGAUGUUUAUCGAAUUUUGGGCGGAUGCCUACAAA [C11U A39G G43U C58G C70A] | < 1e-05 | – | < 1e-05 | –
6 | AUAAAAGCGCGAGAACUACAGAAAUGUAGUUGACGAGGAGGCGGUUUAUCGAAUUUUCGGCGGAUGCCUCCAAA [C11G A42C] | < 1e-05 | < 1e-05 | < 1e-05 | –
7 | AUAAAAGCGCGAGCACUACAGAAAUGUAGUUGACGAGGAGGAGGUUUAUCGAAUUUUCGGCGGAUGCCACCAAA [C11G A14C U69A] | 0.000527 ± 0.00014 | – | 9.25e-05 ± 3.6e-05 | –
8 | AUAAAAGCGCGAGGACUACAGAAAUGUAGUCGACGAGGAGGGGGUUUAUCGAAUUGUCGGCGGUAGCCUCCAAA [C11G A14G U31C A42G U56G A64U U65A] | < 1e-05 | < 1e-05 | – | –
9 | AUAAAAGCGCGAGAACUACAGAAAUGUAGUUGACGAGGAGGAGGUUGAUCGAAUUUUCGGCGGAUGCCUCCAAA [C11G U47G] | < 1e-05 | – | < 1e-05 | < 1e-05
10 | AUAAAAGCGCUAGAACUACAGAAAUGUAGUUGACGAGGAGGUUGUUUAUCGAGUUUUCGGCGGAUGCGUCCAAA [C11U A42U G43U A53G C68G] | 0.0001 ± 3.7e-05 | 0.000213 ± 6.4e-05 | 0.0001 ± 3.5e-05 | –
11 | AUAAAAGCGCGAGAACUACAGAAAUGUAGUUGACGAGGAGGAGGUGUAUCGAAUUUUCGGAGGAUACCUCCAAA [C11G U46G C61A G66A] | < 1e-05 | < 1e-05 | < 1e-05 | –
12 | AUAAAAGCGCCCGAACUACAGAAAUGUAGUUGACGAGGAGGAGGUUUAUCGAAUUUUCGGCGGCUGCAUCAAAA [A12C A64C C68A C71A] | < 1e-05 | < 1e-05 | < 1e-05 | –
13 | AUAAAAGCGCGAGAACUACAGAAAUGUAGUUGACGCGGAGCAGGUUUAUCGAAUUUUCGACGGAUGCCUCCAAA [C11G A36C G41C G60A] | < 1e-05 | < 1e-05 | < 1e-05 | –
14 | AUAAAAGCGCCGGAACUACAGAAAUGUAGUUGACGAGGAAGAGGUUUAUCGAAUUUUCGGUGGAUGCCUCCAAA [A12G G40A C61U] | < 1e-05 | – | – | –
15 | AUAAAAGCGCCGGAACUACAGAAAUGUAGUUGGCGAGGAGGAGGUUUAUCGAAUUUUCGGCGGAUGCCUCCAAA [A12G A33G] | < 1e-05 | < 1e-05 | < 1e-05 | < 1e-05
16 | AUAAAAGCGCCCGAACUACAGAAAUGUAGUUGACGAGGAGGAUGUUUAUCGACUUUUCGGCGGAUGCCUCCAAA [A12C G43U A53C] | < 1e-05 | – | – | –
17 | AUAAAAGCGCCGGAACUACAGAAAUGUAGUUGACGAGGUGGAGGUUUAUCGACUUUUCGGCGGAUGCCUCCAAA [A12G A39U A53C] | < 1e-05 | – | – | –
